PMC12538056, “The effects of naturally occurring mutations on functionality of oxylipin metabolizing dehydrogenase reductase nine” (The Journal of Biological Chemistry, 2025)

Target: the molecule itself
Test: not stated; purified water-soluble DHRS9 in solution; the method is shown only in Fig. S3

B1: water-soluble form of mouse DHRS9 (dehydrogenase reductase 9) lacking the N-terminal transmembrane segment (enzyme, UniProt Q58NB6 17-319, looked up)
chain: NYKGQLKIADIADKYVFITGCDTGFGNLAARTFDKKGFRVIAACLTESGSAALKAKTSERLHTVLLDVTDPENVKKTAQWVKSHVGEKGLWGLINNAGVLGVLAPTDWLTVDDYREPIEVNLFGLINVTLNMLPLVKKARGRVINVSSIGGRLAFGGGGYTPSKYAVEGFNDSLRRDMKAFGVHVSCIEPGLFKTELADPIKTTEKKLAIWKHLSPDIKQQYGEGYIEKSLHRLKSNTSSVNLDLSLVVGCMDHALTSLFPKTRYIAGKDAKTFWIPLSHMPAVLQDFLLLKQKVELANPKAV
notes: mouse DHRS9 lacking the first 16 amino acids that form the transmembrane segment; residues 17 to 319; cDNA made by RT-PCR from mouse skin; Crystallised in complex with NADH; In the model, residues 21-319 (chain A) and 22-319 (chain B) are seen; the tag and residues 17-20/21 could not be located; also called soluble form of DHRS9; truncated DHRS9 protein; not shown: His10, N-terminal, kept
With B1 the “stoichiometry N” value was 2.
